The text below walks through data of patent publication US12103979B2, “N-acetylated and non-acetylated dipeptides containing arginine to reduce the viscosity of viscous compositions of therapeutic polypeptides” (AMGEN INC., priority 2017, dated 2024).

Series [1] can be described thus: pI of therapeutic antibodies of Table 1. In kind it is physicochemical.
The nature of series [2]: Viscosity of therapeutic antibodies of Table 1 at exemplary concentration. To be noted: at the Conc. (133.9-162.5 mg/ml). In kind it is physicochemical.

B1: PCSK9: therapeutic antibody; IgG2, Lambda; LC SEQ ID NO 73, HC SEQ ID NO 74 (antibody, listed as Homo sapiens)
heavy: MDWTWRILFLVAAATGVHSEVQLVQSGAEVKKPGASVKVSCKASGYTLTSYGISWVRQAPGQGLEWMGWVSFYNGNTNYAQKLQGRGTMTTDPSTSTAYMELRSLRSDDTAVYYCARGYGMDVWGQGTTVTVSSASTKGPSVFPLAPCSRSTSESTAALGCLVKDYFPEPVTVSWNSGALTSGVHTFPAVLQSSGLYSLSSVVTVPSSNFGTQTYTCNVDHKPSNTKVDKTVERKCCVECPPCPAPPVAGPSVFLFPPKPKDTLMISRTPEVTCVVVDVSHEDPEVQFNWYVDGVEVHNAKTKPREEQFNSTFRVVSVLTVVHQDWLNGKEYKCKVSNKGLPAPIEKTISKTKGQPREPQVYTLPPSREEMTKNQVSLTCLVKGFYPSDIAVEWESNGQPENNYKTTPPMLDSDGSFFLYSKLTVDKSRWQQGNVFSCSVMHEALHNHYTQKSLSLSPGK
light: MDMRVPAQLLGLLLLWLRGARCESALTQPASVSGSPGQSITISCTGTSSDVGGYNSVSWYQQHPGKAPKLMIYEVSNRPSGVSNRFSGSKSGNTASLTISGLQAEDEADYYCNSYTSTSMVFGGGTKLTVLGQPKAAPSVTLFPPSSEELQANKATLVCLISDFYPGAVTVAWKADSSPVKAGVETTTPSKQSNNKYAASSYLSLTPEQWKSHRSYSCQVTHEGSTVEKTVAPTECS
For B1, in series [1], the pl turned out to be 8.1.

B2: TSLP: therapeutic antibody; IgG2, Lambda; LC SEQ ID NO 69, HC SEQ ID NO 70 (antibody, listed as Homo sapiens)
heavy: MGSTAILGLLLAVLQGGRAQMQLVESGGGVVQPGRSLRLSCAASGFTFRTYGMHWVRQAPGKGLEWVAVIWYDGSNKHYADSVKGRFTITRDNSKNTLNLQMNSLRAEDTAVYYCARAPQWELVHEAFDIWGQGTMVTVSSASTKGPSVFPLAPCSRSTSESTAALGCLVKDYFPEPVTVSWNSGALTSGVHTFPAVLQSSGLYSLSSVVTVPSSNFGTQTYTCNVDHKPSNTKVDKTVERKCCVECPPCPAPPVAGPSVFLFPPKPKDTLMISRTPEVTCVVVDVSHEDPEVQFNWYVDGVEVHNAKTKPREEQFNSTFRVVSVLTVVHQDWLNGKEYKCKVSNKGLPAPIEKTISKTKGQPREPQVYTLPPSREEMTKNQVSLTCLVKGFYPSDIAVEWESNGQPENNYKTTPPMLDSDGSFFLYSKLTVDKSRWQQGNVFSCSVMHEALHNHYTQKSLSLSPGK
light: MGSTAILGLLLAVLQGGRASYVLTQPPSVSVAPGQTARITCGGNNLGSKSVHWYQQKPGQAPVLVVYDDSDRPSWIPERFSGSNSGNTATLTISRGEAGDEADYYCQVWDSSSDHVVFGGGTKLTVLGQPKAAPSVTLFPPSSEELQANKATLVCLISDFYPGAVTVAWKADSSPVKAGVETTTPSKQSNNKYAASSYLSLTPEQWKSHRSYSCQVTHEGSTVEKTVAPTECS
Regarding B2, in series [2], the “Viscosity (cP)” value came out at 21.4 cP. Also, the pl in series [1] was 7.2.

B3: Dkk1 (11H10): therapeutic antibody; IgG2, Kappa; LC SEQ ID NO 71, HC SEQ ID NO 72 (antibody, listed as Homo sapiens)
heavy: MDIRLSLAFLVLFIKGVQCEVQLVESGGGLVQPANSLKLSCAASGFTFSDYAMAWVRQSPKKGLEWVATIIYDGSSTYYRDSVKGRFTISRDNAKSTLYLQMDSLRSEDTATYYCATGLGIATDYFDYWGQGVLVTVSSAETTAPSVYPLAPGTALKSNSMVTLGCLVKGYFPEPVTVTWNSGALSSGVHTFPAVLQSGLYTLTSSVTVPSSTWPSQTVTCNVAHPASSTKVDKKIVPRNCGGDCKPCICTGSEVSSVFIFPPKPKDVLTITLTPKVTCVVVDISQDDPEVHFSWFVDDVEVHTAQTRPPEEQFNSTFRSVSELPILHQDWLNGRTFRCKVTSAAFPSPIEKTISKPEGRTQVPHVYTMSPTKEEMTQNEVSITCMVKGFYPPDIYVEWQMNGQPQENYKNTPPTMDTDGSYFLYSKLNVKKEKWQQGNTFTCSVLHEGLHNHHTEKSLSHSPGK
light: MGVPTHLLGLLLLWITHAICDIRMTQSPASLSASLGETVNIECLASEDIYSDLAWYQQKPGKSPQLLIYNANSLQNGVPSRFSGSGSGTQYSLKINSLQSEDVATYFCQQYNNYPPTFGGGTKLELKRADAAPTVSIFPPSTEQLATGGASVVCLMNNFYPRDISVKWKIDGTERRDGVLDSVTDQDSKDSTYSMSSTLSLTKADYESHNLYTCEVVHKTSSSPVVKSFNRNEC
Consider B3, for which the “Viscosity (cP)” value in series [2] came out at 22.5 cP. Moreover, the pl in series [1] was 8.2.

B4: Hepcidin: therapeutic antibody; IgG2, Lambda; LC SEQ ID NO 31, HC SEQ ID NO 32 (antibody, listed as Homo sapiens)
heavy: MEFGLSWVFLVALLRGVQCQVQLVESGGGVVQPGRSLRLSCAASGFTFSSYGMHWVRQAPGKGLEWVAVIWYAESNKYYADSVKGRFTISRDNSKNTLYLQMNSLRAEDTAVYYCARAQEGIAPDAFDIWGQGTMVTVSSASTKGPSVFPLAPCSRSTSESTAALGCLVKDYFPEPVTVSWNSGALTSGVHTFPAVLQSSGLYSLSSVVTVPSSNFGTQTYTCNVDHKPSNTKVDKTVERKCCVECPPCPAPPVAGPSVFLFPPKPKDTLMISRTPEVTCVVVDVSHEDPEVQFNWYVDGVEVHNAKTKPREEQFNSTFRVVSVLTVVHQDWLNGKEYKCKVSNKGLPAPIEKTISKTKGQPREPQVYTLPPSREEMTKNQVSLTCLVKGFYPSDIAVEWESNGQPENNYKTTPPMLDSDGSFFLYSKLTVDKSRWQQGNVFSCSVMHEALHNHYTQKSLSLSPGK
light: MDMRVPAQLLGLLLLWLRGARCYELTQPPSVSVSPGQTATITCSGDKLGERYASWYQQRPGQSPVLVIYQDIKRPSGIPERFSGSNSGNTATLTISGTQAMDEADYFCQAWYSSTNVLFGGGTKLTVLGQPKAAPSVTLFPPSSEELQANKATLVCLISDFYPGAVTVAWKADSSPVKAGVETTTPSKQSNNKYAASSYLSLTPEQWKSHRSYSCQVTHEGSTVEKTVAPTECS
As for B4, the “Viscosity (cP)” value in series [2] is listed as 9.9 cP. In series [1], this molecule showed a pl of 7.3.

B5: CGRP: therapeutic antibody; IgG2, Lambda; LC SEQ ID NO 29, HC SEQ ID NO 30 (antibody, listed as Homo sapiens)
heavy: MEFGLSWVFLVALLRGVQCQVQLVESGGGVVQPGRSLRLSCAASGFTFSSFGMHWVRQAPGKGLEWVAVISFDGSIKYSVDSVKGRFTISRDNSKNTLFLQMNSLRAEDTAVYYCARDRLNYYDSSGYYHYKYYGMAVWGQGTTVTVSSASTKGPSVFPLAPCSRSTSESTAALGCLVKDYFPEPVTVSWNSGALTSGVHTFPAVLQSSGLYSLSSVVTVPSSNFGTQTYTCNVDHKPSNTKVDKTVERKCCVECPPCPAPPVAGPSVFLFPPKPKDTLMISRTPEVTCVVVDVSHEDPEVQFNWYVDGVEVHNAKTKPREEQFNSTFRVVSVLTVVHQDWLNGKEYKCKVSNKGLPAPIEKTISKTKGQPREPQVYTLPPSREEMTKNQVSLTCLVKGFYPSDIAVEWESNGQPENNYKTTPPMLDSDGSFFLYSKLTVDKSRWQQGNVFSCSVMHEALHNHYTQKSLSLSPGK
light: MTCSPLLLTLLIHCTGSWAQSVLTQPPSVSAAPGQKVTISCSGSSSNIGNNYVSWYQQLPGTAPKLLIYDNNKRPSGIPDRFSGSKSGTSTTLGITGLQTGDEADYYCGTWDSRLSAVVFGGGTKLTVLGQPKANPTVTLFPPSSEELQANKATLVCLISDFYPGAVTVAWKADGSPVKAGVETTKPSKQSNNKYAASSYLSLTPEQWKSHRSYSCQVTHEGSTVEKTVAPTECS
With B5, the “Viscosity (cP)” value in series [2] was 9.6 cP. The same molecule registered a pl in series [1] of 8.8.

B6: Sclerostin (2B8): therapeutic antibody; IgG2, Lambda; LC SEQ ID NO 79, HC SEQ ID NO 80 (antibody, listed as Homo sapiens)
heavy: MEFGLSWVFLVALLRGVQCQVQLVESGGGVVQPGRSLRLSCAASGFTFSSYVMHWVRQAPGKGLEWVAVIWYDGSNKYYADSVKGRFTISRDNSKNTLYLQMNSLRAEDTAVYYCAREGYDYGEDYYYYGMDVWGQGTTVTVSSASTKGPSVFPLAPCSRSTSESTAALGCLVKDYFPEPVTVSWNSGALTSGVHTFPAVLQSSGLYSLSSVVTVPSSNFGTQTYTCNVDHKPSNTKVDKTVERKCCVECPPCPAPPVAGPSVFLFPPKPKDTLMISRTPEVTCVVVDVSHEDPEVQFNWYVDGVEVHNAKTKPREEQFNSTFRVVSVLTVVHQDWLNGKEYKCKVSNKGLPAPIEKTISKTKGQPREPQVYTLPPSREEMTKNQVSLTCLVKGFYPSDIAVEWESNGQPENNYKTTPPMLDSDGSFFLYSKLTVDKSRWQQGNVFSCSVMHEALHNHYTQKSLSLSPGK
light: MAWAPLLLTLLAHCTGSWANFMLTQPHSVSESPGKTVAISCTRNSGSIASNSVQWYQQRPGSSPTTVIFEDNQRPSGVPDRFSGSIDSSSNSASLTISGLKTEDEADYYCQSYDSNNWVFGGGTKLTVLGQPKANPTVTLFPPSSEELQANKATLVCLISDFYPGAVTVAWKADGSPVKAGVETTKPSKQSNNKYAASSYLSLTPEQWKSHRSYSCQVTHEGSTVEKTVAPTECS
In the case of B6, in series [2], the “Viscosity (cP)” value is on record as 30.0 cP. The pl in series [1] stood at 6.7.
